We go through one substance from patent WO2021212049A2.

The assay addresses trimeric SARS-CoV-2 spike (residues 1-1213), 986PP987, furin sites disrupted, C-terminal foldon and hexahistidine tag (SARS-CoV-2) (UniProt P0DTC2).

With “2B04 Fab (papain-cleaved Fab form of 2B04)”, the total buried surface area of the complex was 656 Å2.
